Reference: patent US20190269788A1 (PIERRE FABRE MEDICAMENT, published 2019)
Where a chain is given by its changes, count along the chain named. Where two headings read alike, the source gives them in different places.

Tests used:
[1] = target: T1, human IGF-1R, native, on MCF-7 cells or on hIGF-1R transfected cells (human, UniProt P08069 31-1367); assay: cell-based or functional assay
[2] = target: T1, human IGF-1R, native, on MCF-7 cells or …; assay: cell-based or functional assay; remark: listed apart in the source
[3] = target: T1, human IGF-1R, native, on MCF-7 cells or …; assay: cell-based or functional assay; remark: listed apart in the source
[4] = target: T2, rhAxl-Fc protein (R and D Systems, cat No 154-AL) (human, UniProt P30530 26-451); assay: ELISA on coated rhAxl-Fc, anti-mouse IgG-HRP, TMB
T2 construct: Bought; also called recombinant human Axl-Fc
T2 sequence (P30530 26-451 D266N): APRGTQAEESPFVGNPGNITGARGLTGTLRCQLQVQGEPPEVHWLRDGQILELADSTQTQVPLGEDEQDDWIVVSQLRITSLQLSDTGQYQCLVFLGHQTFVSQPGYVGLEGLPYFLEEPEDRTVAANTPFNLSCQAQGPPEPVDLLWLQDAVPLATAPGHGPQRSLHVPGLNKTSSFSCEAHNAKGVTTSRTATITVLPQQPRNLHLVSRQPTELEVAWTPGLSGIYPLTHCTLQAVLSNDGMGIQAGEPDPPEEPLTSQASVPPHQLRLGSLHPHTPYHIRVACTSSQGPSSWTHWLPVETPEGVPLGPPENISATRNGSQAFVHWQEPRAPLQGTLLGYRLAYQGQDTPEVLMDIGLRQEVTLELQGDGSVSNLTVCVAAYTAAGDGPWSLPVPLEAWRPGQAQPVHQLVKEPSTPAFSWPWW
Description: (§1) Then 1/2 serial dilutions were done over 12 columns. Plates were washed and a goat anti-mouse (Jackson) specific IgG-HRP was added for 1 h at 37° C. Reaction development was performed using the TMB substrate solution. […] Coating controls were performed in presence of a goat anti-human IgG Fc polyclonal serum labelled with HRP (Jackson, ref 109-035-098) and/or in presence of a HRP-coupled anti-Histidine antibody (R and D Systems, ref: MAB050H).

[5] = target: T3, rhDtk-Fc (R and D Systems, cat No 859-DK) (human, UniProt Q06418 41-428, limits assumed); assay: ELISA on coated rhDtk-Fc, anti-mouse IgG-HRP, TMB
T3 construct: Bought
T3 sequence (looked up): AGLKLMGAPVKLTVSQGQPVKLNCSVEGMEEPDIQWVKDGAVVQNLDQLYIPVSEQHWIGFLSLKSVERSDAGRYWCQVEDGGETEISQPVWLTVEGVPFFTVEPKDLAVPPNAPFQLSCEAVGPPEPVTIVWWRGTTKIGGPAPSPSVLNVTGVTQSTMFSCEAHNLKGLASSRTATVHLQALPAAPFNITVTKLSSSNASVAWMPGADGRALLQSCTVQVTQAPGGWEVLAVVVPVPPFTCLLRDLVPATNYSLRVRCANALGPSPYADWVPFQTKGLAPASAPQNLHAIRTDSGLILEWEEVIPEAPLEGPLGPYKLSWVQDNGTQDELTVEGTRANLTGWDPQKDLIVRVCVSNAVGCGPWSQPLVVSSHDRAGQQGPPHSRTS
Description: as §1

[6] = target: T4, rhMer-Fc (R and D Systems, cat No 891-MR) (human, UniProt Q12866 26-499, limits assumed); assay: ELISA on coated rhMer-Fc, anti-mouse IgG-HRP, TMB
T4 construct: Bought
T4 sequence (looked up): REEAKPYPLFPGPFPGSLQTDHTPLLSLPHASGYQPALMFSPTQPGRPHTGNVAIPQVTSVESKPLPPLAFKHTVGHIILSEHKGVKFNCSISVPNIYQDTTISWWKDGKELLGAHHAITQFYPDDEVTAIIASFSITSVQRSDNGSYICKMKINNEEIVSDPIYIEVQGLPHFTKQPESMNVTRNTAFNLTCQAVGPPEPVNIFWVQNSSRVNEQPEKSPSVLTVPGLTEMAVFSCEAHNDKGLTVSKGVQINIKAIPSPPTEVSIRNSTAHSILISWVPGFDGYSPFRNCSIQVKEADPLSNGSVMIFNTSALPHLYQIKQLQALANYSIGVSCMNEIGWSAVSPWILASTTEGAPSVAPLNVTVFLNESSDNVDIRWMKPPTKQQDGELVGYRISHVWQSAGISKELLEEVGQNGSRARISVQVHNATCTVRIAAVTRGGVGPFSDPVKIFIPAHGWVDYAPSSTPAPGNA
Description: as §1

[7] = target: T5, human Axl receptor on human tumor cells (SN12C and other lines) (human, UniProt P30530 26-894); assay: FACS titration on SN12C cells, anti-mouse Alexa 488
T5 construct: also called membrane Axl receptor; cell-surface Axl
T5 sequence (P30530 26-894 D266N limits assumed): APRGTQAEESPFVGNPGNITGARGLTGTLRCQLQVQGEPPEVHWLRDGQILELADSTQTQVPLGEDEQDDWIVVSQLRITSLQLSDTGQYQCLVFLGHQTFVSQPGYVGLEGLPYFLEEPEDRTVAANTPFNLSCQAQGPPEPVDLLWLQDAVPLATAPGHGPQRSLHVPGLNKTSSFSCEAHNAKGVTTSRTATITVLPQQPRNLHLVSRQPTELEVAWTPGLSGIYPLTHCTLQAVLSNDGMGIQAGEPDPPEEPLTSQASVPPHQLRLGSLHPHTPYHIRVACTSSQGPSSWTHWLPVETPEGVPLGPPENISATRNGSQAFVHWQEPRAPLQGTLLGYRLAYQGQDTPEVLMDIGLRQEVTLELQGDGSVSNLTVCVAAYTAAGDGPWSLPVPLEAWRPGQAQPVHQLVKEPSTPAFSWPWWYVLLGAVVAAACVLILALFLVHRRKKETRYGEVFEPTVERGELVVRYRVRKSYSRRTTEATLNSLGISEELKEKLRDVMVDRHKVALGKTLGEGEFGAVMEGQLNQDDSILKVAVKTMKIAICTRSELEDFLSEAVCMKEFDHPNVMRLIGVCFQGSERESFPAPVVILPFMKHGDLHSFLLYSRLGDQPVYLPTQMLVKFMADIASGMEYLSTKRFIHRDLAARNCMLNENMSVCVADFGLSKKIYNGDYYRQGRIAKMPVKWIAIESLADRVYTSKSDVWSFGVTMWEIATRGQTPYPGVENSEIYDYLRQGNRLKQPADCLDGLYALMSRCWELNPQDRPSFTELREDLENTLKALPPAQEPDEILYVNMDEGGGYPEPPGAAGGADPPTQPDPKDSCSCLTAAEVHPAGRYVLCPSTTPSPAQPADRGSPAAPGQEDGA
Description: (§2) After 3 washes in phosphate-buffered saline (PBS) supplemented with 1% BSA and 0.01% NaN₃, cells were incubated with secondary antibody Goat anti-mouse Alexa 488 (1/500° dilution) for 20 minutes at 4° C. After 3 additional washes in PBS supplemented with 1% BSA and 0.1% NaN₃, cells were analyzed by FACS (Facscalibur, Becton-Dickinson). At least 5000 cells were assessed to calculate the mean value of fluorescence intensity.

[8] = target: T5, human Axl receptor on human tumor cells …; assay: FACS titration on MDA-MB-231 cells, anti-mouse Alexa 488
Description: as §2

B1: c212A11 (antibody, human IgG1, kappa, V domains shown)
VH: QVQLQQSGPELVKPGASVKMSCKASGYTFTSYYIHWVKQRPGQGLEWIGWIWPGDGSTKYNEKFKGKTTLTADKSSSTAYMFLSSLTSEDSAVYFCASPMITPNYAMDYWGQGASVTVSS
VL: DIQMTQTTSSLSASLGDRVTISCRASQDINKYLNWYQQQPDGTVKLLIYYTSRLHSGVPSRFSGRGSGTDYSLTISNLEQEDIATYFCQQGSTLPYTFGGGTKLEIKR
- phosphorylation of hIGF-1R as % of phosphorylation induced by IGF-1 (MCF-7, 10 µg/ml Ab) [1]: < 10%
- ΔMFI (MCF-7, 4°C minus 37°C, 4 h) [2]: 322 MFI

B2: m212A11 (antibody, V domains shown)
VH: B1 VH
VL: DIQMTQTTSSLSASLGDRVTISCRASQDINKYLNWYQQQPDGTVKLLIYYTSRLHSGVPSRFSGRGSGTDYSLTISNLEQEDIATYFCQQGSTLPYTFGGGTKLEIK
- inhibition of hIGF-1R phosphorylation in response to IGF-1 (MCF-7) [1]: > 80%

B3: m208F2 (antibody, V domains shown)
VH: B1 VH with H35Y, I48L, G66D, S77N
VL: B2 VL with N30S, V44I, L78V
- inhibition of hIGF-1R phosphorylation in response to IGF-1 (MCF-7) [1]: > 80%
- % internalization (MCF-7, 10 µg/ml) [3]: 88%
- ΔMFI (MCF-7, 4°C minus 37°C, 4 h) [3]: 294 MFI

B4: c208F2 (antibody, human IgG1, kappa, V domains shown)
VH: B1 VH with H35Y, I48L, G66D, S77N
VL: B1 VL with N30S, V44I, L78V
- phosphorylation of hIGF-1R as % of phosphorylation induced by IGF-1 (MCF-7, 10 µg/ml Ab) [1]: < 10%
- ΔMFI (MCF-7, 4°C minus 37°C, 4 h) [2]: 288 MFI
- % internalization (MCF-7, 10 µg/ml) [3]: 82%
- ΔMFI (MCF-7, 4°C minus 37°C, 4 h) [3]: 278 MFI

B5: c214F8 (antibody, human IgG1, kappa)
heavy: not shown
light: DIQMTQTTSSLSASLGDRVTFSCRASQDISKYLNWYQQQPDGTIKLLIYYTSRLHSGVPSRFSGRGSGTDYSLTITNLEQEDIATYFCQQGSALPYTFGGGTKLEIKRTVAAPSVFIFPPSDEQLKSGTASVVCLLNNFYPREAKVQWKVDNALQSGNSQESVTEQDSKDSTYSLSSTLTLSKADYEKHKVYACEVTHQGLSSPVTKSFNRGEC
- phosphorylation of hIGF-1R as % of phosphorylation induced by IGF-1 (MCF-7, 10 µg/ml Ab) [1]: < 10%
- ΔMFI (MCF-7, 4°C minus 37°C, 4 h) [2]: 403 MFI

B6: m213B10 (antibody, V domains shown)
VH: B1 VH with P9S, K63R
VL: B2 VL with N30S, V44I, S76T, T93A
- inhibition of hIGF-1R phosphorylation in response to IGF-1 (MCF-7) [1]: > 80%

B7: c213B10 (antibody, human IgG1, kappa)
heavy: not shown
light: B5 light with F21I
- phosphorylation of hIGF-1R as % of phosphorylation induced by IGF-1 (MCF-7, 10 µg/ml Ab) [1]: < 10%
- ΔMFI (MCF-7, 4°C minus 37°C, 4 h) [2]: 369 MFI

B8: m219D6 (antibody, V domains shown)
VH: B1 VH with A16D, T28S, Y33F, A72T, S84N
VL: B2 VL with N30S
- inhibition of hIGF-1R phosphorylation in response to IGF-1 (MCF-7) [1]: > 80%

B9: m214F8 (antibody, V domains shown)
VH: B1 VH with P9S, M20L, K63R
VL: B2 VL with I21F, N30S, V44I, S76T, T93A
- inhibition of hIGF-1R phosphorylation in response to IGF-1 (MCF-7) [1]: > 80%

B10: c219D6 (antibody, human IgG1, kappa, V domains shown)
VH: B1 VH with A16D, T28S, Y33F, A72T, S84N
VL: B1 VL with N30S
- phosphorylation of hIGF-1R as % of phosphorylation induced by IGF-1 (MCF-7, 10 µg/ml Ab) [1]: < 10%
- ΔMFI (MCF-7, 4°C minus 37°C, 4 h) [2]: 353 MFI

B11: m1613F12 (antibody, V domains shown)
VH: EVHLQQSGAELVKPGASVKLSCTASGFNIRDTYIHWVKQRPEQGLEWIGRLDPANGHTKYGPNFQGRATMTSDTSSNTAYLQLSSLTSEDTAVYYCARGAYYYGSSGLFYFDYWGQGTTLSVSS
VL: DVQITQSPSYLATSPGETITINCRASKSISKYLAWYQEKPGKTNKLLIYSGSTLQSGVPSRFSGSGSGTDFTLTISSLEPEDFAMYFCQQHHEYPLTFGAGTELELK
notes: Murine monoclonal antibody, detected with anti-mouse IgG; also called murine 1613F12; hybridoma I-4505
- EC50 (read off the curve) [4]: ~1 nM
- binding result [5]: no binding (tested: log (M) -7.5 (about 3e-8 M))
- binding result [6]: no binding (tested: log (M) -7.5 (about 3e-8 M))
- EC50 (read off the curve) [7]: ~0.9 nM
- EC50 (read off the curve) [8]: ~1 nM

B12: hz208F2 VH3/VL3 (antibody, human IgG1, kappa, V domains shown)
VH: QVQLVQSGAEVKKPGASVKMSCKASGYTFTSYYIYWVKQAPGQGLEWLGWIWPGDGSTKYNEKFQGRVTLTADKSSNTAYMFLSSLRSEDTAVYFCASPMITPNYAMDYWGQGTLVTVSS
VL: DIQMTQSPSSLSASVGDRVTISCRASQDISKYLNWYQQKPGKAPKLLIYYTSRLHSGVPSRFSGRGSGTDYSLTISNLQPEDFATYFCQQGSTLPYTFGGGTKVEIKR
- % internalization (MCF-7, 10 µg/ml) [3]: 87%
- ΔMFI (MCF-7, 4°C minus 37°C, 4 h) [3]: 344 MFI
